Assay results published in the Human Domainome abundance scans (Beltran et al. 2025).
± gives the uncertainty stated by the source.

B1: Homeobox protein cut-like 2, residues 895 to 963; numbered along this chain, O14529 (parent)
chain: EVDTLELTRQVKEKLAKNGICQRIFGEKVLGLSQGSVSDMLSRPKPWSKLTQKGREPFIRMQLWLSDQL

Variants of: B1
Assay: abundance fitness (aPCA) (normalised: wild type 0, dead -1); higher = more abundant; growth selection in yeast, the domain comes from the species named
Conditions: Homo sapiens

| Variant | abundance fitness |
| --- | --- |
| D3R | -0.316 ± 0.043 |
| V11L | -0.27 ± 0.035 |
| S38G | -0.097 ± 0.033 |
| S66R | 0.028 ± 0.045 |
| Q62S | -0.079 ± 0.035 |
| Q68K | 0.062 ± 0.041 |
| F58S | -1.11 ± 0.062 |
| L32Q | -0.304 ± 0.1 |
| L15C | -0.123 ± 0.043 |
| S42K | 0.009 ± 0.044 |
| L69G | -0.056 ± 0.045 |
| E13G | -0.2 ± 0.046 |
| L41V | -0.518 ± 0.092 |
| D39W | -0.328 ± 0.36 |
| G35T | 0.039 ± 0.048 |
| M40H | -0.287 ± 0.081 |
| L32Y | -0.281 ± 0.035 |
| F25E | -0.904 ± 0.054 |
| L7T | -0.077 ± 0.041 |
| W47M | -0.681 ± 0.053 |
| L15R | -0.069 ± 0.045 |

| Variant | abundance fitness |
| --- | --- |
| V2R | -0.041 ± 0.052 |
| T4V | -0.221 ± 0.031 |
| E56Y | -0.248 ± 0.079 |
| S42R | -0.054 ± 0.1 |
| W64M | -1.06 ± 0.1 |
| E6N | -0.055 ± 0.1 |
| S33I | -0.088 ± 0.058 |
| V37D | -0.397 ± 0.093 |
| G31P | -0.378 ± 0.038 |
| L5M | 0.122 ± 0.029 |
| Q52M | -0.106 ± 0.044 |
| R23L | -0.203 ± 0.029 |
| P46K | -0.095 ± 0.071 |
| F25V | -0.646 ± 0.037 |
| K17I | -0.292 ± 0.066 |
| L69D | -0.188 ± 0.18 |
| P46H | -0.077 ± 0.05 |
| Q62H | -0.127 ± 0.084 |
| Q22C | -0.306 ± 0.1 |
| S36N | -0.045 ± 0.041 |
| R55M | -0.385 ± 0.044 |

| Variant | abundance fitness |
| --- | --- |
| Q10H | -0.228 ± 0.057 |
| W47L | -0.488 ± 0.028 |
| G19K | 0.009 ± 0.041 |
| L65R | -0.782 ± 0.055 |
| L63S | 0.069 ± 0.032 |
| L32I | -0.063 ± 0.034 |
| S66E | -0.069 ± 0.077 |
| G31W | -0.367 ± 0.058 |
| K45C | -0.229 ± 0.24 |
| I20K | -0.32 ± 0.051 |
| E13L | -0.138 ± 0.024 |
| I59P | -0.937 ± 0.043 |
| P46A | -0.236 ± 0.28 |
| I59L | -0.011 ± 0.031 |
| K45R | 0.128 ± 0.14 |
| L5E | 0.083 ± 0.031 |
| K17W | -0.269 ± 0.053 |
| G26F | -0.02 ± 0.032 |
| I20Q | -0.202 ± 0.046 |
| V37A | -0.139 ± 0.038 |
| N18H | 0.001 ± 0.049 |

| Variant | abundance fitness |
| --- | --- |
| K53W | -0.298 ± 0.061 |
| V11D | -0.065 ± 0.073 |
| W64V | -1.15 ± 0.087 |
| I20P | -0.226 ± 0.042 |
| F25P | -1.05 ± 0.41 |
| T51Y | -0.011 ± 0.056 |
| D3I | -0.541 ± 0.06 |
| K53S | 0.04 ± 0.047 |
| R43D | 0.013 ± 0.08 |
| P44C | -0.153 ± 0.054 |
| L30Y | -0.472 ± 0.05 |
| I20S | -0.342 ± 0.038 |
| L32K | -0.169 ± 0.056 |
| M40D | -0.059 ± 0.13 |
| L69K | -0.041 ± 0.064 |
| T4W | -0.015 ± 0.039 |
| L41C | -0.452 ± 0.13 |
| R43P | -0.357 ± 0.027 |
| V11H | -0.23 ± 0.07 |
| C21I | -0.115 ± 0.083 |
